We go through 39 variants from the RNAGym collection of RNA variant scans (doi:10.7554/elife.80360).

The chains are these.
B1: CPEB3 Ribozyme (parent)
chain: GGGGGCCACAGCAGAAGCGUUCACGUCGCGGCCCCUGUCAGAUUCUGGUGAAUCUGCGAAUUCUGCUGU

The variants in the series derive from B1. The series is described as follows: self-cleavage, relative activity (ratio to wild type); higher = more cleavage; co-transcriptional.
Consider GGGGGCUACAGCAGAAGGGUUCACGUCGCGGCCCCUGUCAGAUUCUGGUGAAUCUGCGAAUUCUGCUGU [C7U C18G], for which the self-cleavage turned out to be 0.104.

In the case of GGGGGCUACAGCAGAAGCGUUCACGUCGCGGUCCCUGUCAGAUUCUGGUGAAUCUGCGAAUUCUGCUGU [C7U C32U], the self-cleavage stood at 0.984. Under GGGGGCGACAGCAGAAGCGUUCACGUCGCGGCCCCUGUCAGAUUCUGGUGAAUCUGCGAAUACUGCUGU [C7G U62A] stands 0.18; under GGGGGCUACAGCUGAAGCGUUCACGUCGCGGCCCCUGUCAGAUUCUGGUGAAUCUGCGAAUUCUGCUGU [C7U A13U], 0.693; under GGGGGCUACAGCAGAAGCGUUCACUUCGCGGCCCCUGUCAGAUUCUGGUGAAUCUGCGAAUUCUGCUGU [C7U G25U], 0.089.

With GGGGGCUACAGCAGAAGCGUUCACGUCGCGGCCCCUGUCAGAUUCUGGUGAAUCUGCGACUUCUGCUGU [C7U A60C], the self-cleavage was found to be 0.231.

As to GGGGGCUACAACAGAAGCGUUCACGUCGCGGCCCCUGUCAGAUUCUGGUGAAUCUGCGAAUUCUGCUGU [C7U G11A], the self-cleavage is 0.816. As for GGGGGCUACACCAGAAGCGUUCACGUCGCGGCCCCUGUCAGAUUCUGGUGAAUCUGCGAAUUCUGCUGU [C7U G11C], the self-cleavage came to 0.663. Take GGGGGCUACAGCAGAAGCGUUCACGUCGCGGCCCCUGUCAGAUUCUGGUGAAUCUGGGAAUUCUGCUGU [C7U C57G]: the self-cleavage stood at 0.155. As for GGGGGCUACAGCAGAAGCGUUCACGUCGCGGCCGCUGUCAGAUUCUGGUGAAUCUGCGAAUUCUGCUGU [C7U C34G], the figure is 0.287; as for GGGGGCUACAGCAGAAGCGUUCACGUCGCGGCCUCUGUCAGAUUCUGGUGAAUCUGCGAAUUCUGCUGU [C7U C34U], 0.969. As for GGGGGCUACAGCAGAAGCGUUCACGUCGCGGCCCCUGUCAGAUUCUGGUGAAUCUGCGAAUUCUGUUGU [C7U C66U], the figure is 0.982; as for GGGGGCUACAGCAGAAGCGUUCACGUCGCGGCCCCUGUCAGAUUCUGGUGAAUCUGCGAAUUCUGAUGU [C7U C66A], 0.8. Under GGGGGCUACAGCAGAAGCGUUCACGUCGCGGCCCCUGUCAGAUUCUGGUGAAUCUGCGAAUUGUGCUGU [C7U C63G] stands 0.603. As for GGGGGCUACAGCAGAAGCGUUCACGUCGCGGCCCCUGUCAGAUUCUGGUGAAUGUGCGAAUUCUGCUGU [C7U C54G], the self-cleavage is 0.766. As for GGGGGCGACAGCAGAAGCGUUCACGUCGCGGCCCCUGUCAGAUUCUGGUGAAUCUGCGAAUUCUGCUGA [C7G U69A], the figure is 0.728; as for GGGGGCGACAGCAGAAGCGUUCACGUCGCGGCCCCUGUCAGAUUCUGGUGAAUCUGCGAAUUCUGCGGU [C7G U67G], 0.75. Under GGGGGCUACAGCAGAAGCGUUCACGUCACGGCCCCUGUCAGAUUCUGGUGAAUCUGCGAAUUCUGCUGU [C7U G28A] stands 0.123; under GGGGGCUACAGCACAAGCGUUCACGUCGCGGCCCCUGUCAGAUUCUGGUGAAUCUGCGAAUUCUGCUGU [C7U G14C], 0.417. As for GGGGGCUACAGCAGAAGCGUUCACGUCGCGGCCCCUGUCAGAUUCUGGUGAUUCUGCGAAUUCUGCUGU [C7U A52U], the figure is 0.91.

For GGGGGCUACAGCAGAAGCGUUCACGUCGCGGCCCCUGUCAGAUUCUGGUGAGUCUGCGAAUUCUGCUGU [C7U A52G], the self-cleavage was found to be 0.957. In the case of GGGGGCUACAGGAGAAGCGUUCACGUCGCGGCCCCUGUCAGAUUCUGGUGAAUCUGCGAAUUCUGCUGU [C7U C12G], the self-cleavage is 0.822. As for GGGGGCUACAGUAGAAGCGUUCACGUCGCGGCCCCUGUCAGAUUCUGGUGAAUCUGCGAAUUCUGCUGU [C7U C12U], the figure is 0.94; as for GGGGGCUACAGCAGAAGCGUUCACGUCGCGACCCCUGUCAGAUUCUGGUGAAUCUGCGAAUUCUGCUGU [C7U G31A], 0.496. Under GGGGGCUACAGCAGAAGCGUUCAGGUCGCGGCCCCUGUCAGAUUCUGGUGAAUCUGCGAAUUCUGCUGU [C7U C24G] stands 0.225; under GGGGGCUACAGCAGAAGCGUUCAUGUCGCGGCCCCUGUCAGAUUCUGGUGAAUCUGCGAAUUCUGCUGU [C7U C24U], 0.676; under GGGGGCUACAGCAGAAGCGUUCACGUCGCGGCCCCUGUCAGGUUCUGGUGAAUCUGCGAAUUCUGCUGU [C7U A42G], 0.908. Under GGGGGCUACAGCAGAAGCGUUCACGUCGCGGCCCAUGUCAGAUUCUGGUGAAUCUGCGAAUUCUGCUGU [C7U C35A] stands 0.194. As to GGGGGCUACAGCAGAAGCGUUCACGUCGCGGCCCGUGUCAGAUUCUGGUGAAUCUGCGAAUUCUGCUGU [C7U C35G], the self-cleavage worked out at 0.28. Under GGGGGCUACAGCAGAAGCGUUCACGUCGUGGCCCCUGUCAGAUUCUGGUGAAUCUGCGAAUUCUGCUGU [C7U C29U] stands 0.505; under GGGGGCUACAGCAGAAGCGUUCACGUCGAGGCCCCUGUCAGAUUCUGGUGAAUCUGCGAAUUCUGCUGU [C7U C29A], 0.413. In the case of GGGGGCUACAGCAGAAGCGUUCACGUCGGGGCCCCUGUCAGAUUCUGGUGAAUCUGCGAAUUCUGCUGU [C7U C29G], the self-cleavage amounted to 0.314. Take GGGGGCUACAGCAGAGGCGUUCACGUCGCGGCCCCUGUCAGAUUCUGGUGAAUCUGCGAAUUCUGCUGU [C7U A16G]: the self-cleavage came out at 0.908. In the case of GGGGGCUACAGCAGAAGCGUUCACGUCGCGGCCCCUCUCAGAUUCUGGUGAAUCUGCGAAUUCUGCUGU [C7U G37C], the self-cleavage was determined as 0.152. As to GGGGGCUACAGCAGAAGCGUUCACGUCGCGGCCCCUAUCAGAUUCUGGUGAAUCUGCGAAUUCUGCUGU [C7U G37A], the self-cleavage is 0.187.

As for GGGGGCUACAGCAGAAGCGUUUACGUCGCGGCCCCUGUCAGAUUCUGGUGAAUCUGCGAAUUCUGCUGU [C7U C22U], the self-cleavage is 0.155.

Regarding GGGGGCUACAGCAGAAGCGUUCACGUCGCUGCCCCUGUCAGAUUCUGGUGAAUCUGCGAAUUCUGCUGU [C7U G30U], the self-cleavage amounted to 0.814. Under GGGGGCUACAGCAGAAGCGUUCACGUCGCCGCCCCUGUCAGAUUCUGGUGAAUCUGCGAAUUCUGCUGU [C7U G30C] stands 0.608; under GGGGGCUACAGCAGAAGCGUUCACGUCGCAGCCCCUGUCAGAUUCUGGUGAAUCUGCGAAUUCUGCUGU [C7U G30A], 0.957.
